Measured values taken from patent US20220289846A1 (ZYDUS LIFESCIENCES, published 2022).
Residue numbers refer to the chain shown, from its start. One block for each binder: values may come before it.

Molecular target: T1, Human PD-1 (AcroBiosystems) (human, UniProt Q15116 25-167, limits assumed)
T1 construct: Bought recombinant protein, amine-coupled to the SPR chip
Assay: SPR (ProteOn XPR), human PD-1 amine-coupled on GLC chip, antibody as analyte, Langmuir model
Experimental: Human PD-1 (AcroBiosystems) was directly immobilized onto the GLC Chip (ProteOn) using amine-coupling method to obtain a ligand immobilization level of about 500 RU. 10 mM Phosphate Buffered Saline (PBS) (10mM phosphate buffer, pH 7.4, 300 mM NaCl, 0.005% Surfactant P20) was used as the running buffer to carry out the kinetic measurements. All the one step purified antibody samples were diluted in running buffer described above at a suitable concentration in series of concentrations from 10 nM to 0.09 nM. These samples were injected over the chip at a flow rate of 50 μL/min with an association time of 300 s and dissociation time of 1800s. After each sample run, the chip surface was regenerated with 10mM Glycine Buffer pH 1.5 for 18 sec at a flow rate of 100 μL/min.
KD values (Kinetic constants) were determined as the ratio of dissociation rate (kd) to association rate (ka), i.e. KD =kd/ka using ProteOn manager software v3.1.0.6.

T1 sequence (Q15116 25-167 limits assumed): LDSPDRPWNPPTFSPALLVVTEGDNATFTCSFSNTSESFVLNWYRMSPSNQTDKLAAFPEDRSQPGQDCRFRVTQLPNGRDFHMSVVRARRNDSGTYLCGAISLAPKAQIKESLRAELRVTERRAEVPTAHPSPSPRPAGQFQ

Kd: 0.0491 nM
koff: 9.54e-05 s⁻¹
kon: 1.95e+06 M⁻¹ s⁻¹
B1: N7NL (antibody, human IgG4 S228P, kappa, V domains shown)
VH: QVQLVESGGGVVQPGRSLRLDCKASGITFSNSGMHWVRQAPGKGLEWVAVIWYDGSKRYYADSVKGRFTISRDNSKNTLFLQMNSLRAEDTAVYYCATNSDYWGQGTLVTVSS
VL: EIVLTQSPATLSLSPGERATLSCRASQSVSSYLAWYQQKPGQAPRLLIYDASNRATGIPARFSGSGSGTDFTLTISSLEPEDFAVYYCQQSSNWPRTFGQGTKVEIKR
notes: Full-length IgG4 from the pZRCIII hyg.IgG4 vector

Kd: 0.075 nM
koff: 0.000151 s⁻¹
kon: 2.03e+06 M⁻¹ s⁻¹
B2: N5NL (antibody, human IgG4 S228P, kappa, V domains shown)
VH: B1 VH with Y102F
VL: B1 VL
notes: Full-length IgG4 from the pZRCIII hyg.IgG4 vector. 'NSNL' in the text is an OCR form of N5NL; also called NSNL

Kd: 0.0826 nM
koff: 0.000154 s⁻¹
kon: 1.86e+06 M⁻¹ s⁻¹
B3: N6NL (antibody, human IgG4 S228P, kappa, V domains shown)
VH: B1 VH with Y102H
VL: B1 VL
notes: as for B1

Kd: 0.0286 nM
koff: 5.36e-05 s⁻¹
kon: 1.87e+06 M⁻¹ s⁻¹
B4: IP-H4L1 (IgG4) (antibody)
heavy: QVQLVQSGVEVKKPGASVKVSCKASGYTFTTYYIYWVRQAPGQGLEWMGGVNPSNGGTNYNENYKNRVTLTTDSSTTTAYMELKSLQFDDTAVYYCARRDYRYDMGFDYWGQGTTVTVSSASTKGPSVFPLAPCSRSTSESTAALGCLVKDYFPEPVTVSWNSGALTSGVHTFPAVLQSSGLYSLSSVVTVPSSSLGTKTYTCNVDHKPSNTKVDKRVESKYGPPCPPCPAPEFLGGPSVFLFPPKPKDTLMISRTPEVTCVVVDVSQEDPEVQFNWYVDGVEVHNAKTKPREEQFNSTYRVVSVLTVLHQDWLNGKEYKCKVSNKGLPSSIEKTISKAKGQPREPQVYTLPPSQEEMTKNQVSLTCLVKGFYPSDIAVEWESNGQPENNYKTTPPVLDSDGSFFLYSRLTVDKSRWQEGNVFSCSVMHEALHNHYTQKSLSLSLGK
light: EIVLTQSPATLSLSPGERATLSCRASKGVSTSGYSYLHWYQQKPGQAPRLLIYLASYLESGVPARFSGSGSGTDFTLTISSLEPEDFAVYYCQHSRDLPLTFGGGTKVEIKRTVAAPSVFIFPPSDEQLKSGTASVVCLLNNFYPREAKVQWKVDNALQSGNSQESVTEQDSKDSTYSLSSTLTLSKADYEKHKVYACEVTHQGLSSPVTKSFNRGEC

Kd: 0.0248 nM
koff: 5.21e-05 s⁻¹
kon: 2.12e+06 M⁻¹ s⁻¹
B5: IP-H4L1 (IgG1) (antibody)
heavy: not shown
light: B4 light

Kd: 0.0409 nM
koff: 6.28e-05 s⁻¹
kon: 1.54e+06 M⁻¹ s⁻¹
B6: IP-H4.19L1 (antibody, human IgG4 S228P, kappa, V domains shown)
VH: QVQLVQSGVEVKKPGASVKVSCKASGYTFTTYYIYWVRQAPGQGLEWMGGVNPSNSGTNYNENYKNRVTLTTDSSTTTAYMELKSLQFDDTAVYYCARRDYRYDMGFDYWGQGTTVTVSS
VL: EIVLTQSPATLSLSPGERATLSCRASKGVSTSGYSYLHWYQQKPGQAPRLLIYLASYLESGVPARFSGSGSGTDFTLTISSLEPEDFAVYYCQHSRDLPLTFGGGTKVEIKR

Kd: 0.0082 nM
koff: 1.37e-05 s⁻¹
kon: 1.67e+06 M⁻¹ s⁻¹
B7: IP-H4.2L1 (antibody, human IgG4 S228P, kappa, V domains shown)
VH: B6 VH with S56G, F107Y
VL: B6 VL

Kd: 0.0317 nM
koff: 6.2e-05 s⁻¹
kon: 1.96e+06 M⁻¹ s⁻¹
B8: IP-H4.36L1 (antibody, human IgG4 S228P, kappa, V domains shown)
VH: B6 VH with S56G, E62Q
VL: B6 VL
